Experimental data as given in patent US20130005646A1 (Novo Nordisk, published 2013).
Starred links: 1 amine or outer side, 2 acyl side, 3 side chain; linkers in the order of their positions; H or OH if unused. Positions of bridges follow the written chain, without caps; N, C: chain ends. Non-standard residues stand in square brackets, D forms with d. *: point of attachment. C20 diacid = O=C(O)CCCCCCCCCCCCCCCCCCC(=O)*; C18 diacid = O=C(O)CCCCCCCCCCCCCCCCC(=O)*; γGlu = O=C(O)[C@H](CCC(=O)[*:2])N[*:1]; Orn = NCCC[C@H](N)C(=O)O; AEEA = NCCOCCOCC(=O)O

T1: human amylin 3(a) receptor (human calcitonin receptor + RAMP-3) (human, UniProt P30988 25-474; O60896 24-148)
T1 sequence (looked up) 1: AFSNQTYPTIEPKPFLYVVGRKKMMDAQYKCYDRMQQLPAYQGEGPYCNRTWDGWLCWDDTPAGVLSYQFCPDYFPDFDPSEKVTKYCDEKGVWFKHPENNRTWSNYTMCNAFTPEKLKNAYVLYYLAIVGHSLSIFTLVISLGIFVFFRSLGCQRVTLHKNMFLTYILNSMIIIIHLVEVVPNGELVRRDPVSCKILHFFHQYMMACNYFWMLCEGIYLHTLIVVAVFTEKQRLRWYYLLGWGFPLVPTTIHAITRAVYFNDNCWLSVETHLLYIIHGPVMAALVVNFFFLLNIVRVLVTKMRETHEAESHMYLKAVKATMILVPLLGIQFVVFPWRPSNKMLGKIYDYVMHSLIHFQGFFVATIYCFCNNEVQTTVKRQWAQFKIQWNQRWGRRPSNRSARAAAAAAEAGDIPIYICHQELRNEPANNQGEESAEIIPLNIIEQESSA
T1 sequence (looked up) 2: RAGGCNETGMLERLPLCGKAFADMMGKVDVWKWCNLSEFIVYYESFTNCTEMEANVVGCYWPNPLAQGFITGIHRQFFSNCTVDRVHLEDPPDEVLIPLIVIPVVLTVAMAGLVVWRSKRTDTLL

T2: human calcitonin (a) receptor (human, UniProt P30988 25-474)
T2 sequence (looked up): T1 sequence (looked up) 1

T3: rat calcitonin (a) receptor (rat, UniProt P32214 25-516)
T3 sequence (looked up): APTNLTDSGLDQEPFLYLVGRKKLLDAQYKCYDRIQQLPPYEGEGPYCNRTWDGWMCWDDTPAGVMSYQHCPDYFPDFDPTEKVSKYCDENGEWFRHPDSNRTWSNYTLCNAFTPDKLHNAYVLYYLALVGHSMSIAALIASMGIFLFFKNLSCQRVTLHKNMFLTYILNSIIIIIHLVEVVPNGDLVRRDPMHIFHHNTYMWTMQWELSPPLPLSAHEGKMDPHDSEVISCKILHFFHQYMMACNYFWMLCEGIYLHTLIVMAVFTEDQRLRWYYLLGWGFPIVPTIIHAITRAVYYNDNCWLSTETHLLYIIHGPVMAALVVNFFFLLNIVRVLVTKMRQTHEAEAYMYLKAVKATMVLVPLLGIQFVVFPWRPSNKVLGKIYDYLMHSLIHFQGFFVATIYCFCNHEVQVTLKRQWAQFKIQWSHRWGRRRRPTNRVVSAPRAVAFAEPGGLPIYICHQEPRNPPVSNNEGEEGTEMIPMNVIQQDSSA

T4: rat amylin 3(a) receptor (rat calcitonin(a) receptor + rat RAMP3) (rat, UniProt P32214 25-516; Q9JJ73 23-147)
T4 sequence (looked up) 1: T3 sequence (looked up)
T4 sequence (looked up) 2: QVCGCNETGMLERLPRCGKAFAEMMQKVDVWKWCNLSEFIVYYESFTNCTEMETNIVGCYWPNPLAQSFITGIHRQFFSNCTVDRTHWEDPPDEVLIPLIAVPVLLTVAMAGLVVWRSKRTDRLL

B1: N-alpha-[(S)-4-Carboxy-4-(19-carboxynonadecanoylamino)butyryl]-Gly-[Arg1,Glu14,His17,Pro37]-pramlintide (peptide)
peptide: {C20 diacid-γGlu}-GRCNTATCATQRLAEFLHHSSNNFGPILPPTNVGSNTP-NH2
modifications: disulfide 3-8
SMILES: CC[C@H](C)[C@H](NC(=O)[C@@H]1CCCN1C(=O)CNC(=O)[C@H](Cc1ccccc1)NC(=O)[C@H](CC(N)=O)NC(=O)[C@H](CC(N)=O)NC(=O)[C@H](CO)NC(=O)[C@H](CO)NC(=O)[C@H](Cc1c[nH]cn1)NC(=O)[C@H](Cc1c[nH]cn1)NC(=O)[C@H](CC(C)C)NC(=O)[C@H](Cc1ccccc1)NC(=O)[C@H](CCC(=O)O)NC(=O)[C@H](C)NC(=O)[C@H](CC(C)C)NC(=O)[C@H](CCCNC(=N)N)NC(=O)[C@H](CCC(N)=O)NC(=O)[C@@H](NC(=O)[C@H](C)NC(=O)[C@@H]1CSSC[C@H](NC(=O)[C@H](CCCNC(=N)N)NC(=O)CNC(=O)CC[C@H](NC(=O)CCCCCCCCCCCCCCCCCCC(=O)O)C(=O)O)C(=O)N[C@@H](CC(N)=O)C(=O)N[C@@H]([C@@H](C)O)C(=O)N[C@@H](C)C(=O)N[C@@H]([C@@H](C)O)C(=O)N1)[C@@H](C)O)C(=O)N[C@@H](CC(C)C)C(=O)N1CCC[C@H]1C(=O)N1CCC[C@H]1C(=O)N[C@H](C(=O)N[C@@H](CC(N)=O)C(=O)N[C@H](C(=O)NCC(=O)N[C@@H](CO)C(=O)N[C@@H](CC(N)=O)C(=O)N[C@H](C(=O)N1CCC[C@H]1C(N)=O)[C@@H](C)O)C(C)C)[C@@H](C)O
B2: N-alpha-[(S)-4-Carboxy-4-(19-carboxynonadecanoylamino)butyryl]-[His1,Glu14,His17,Arg18]-pramlintide (peptide)
peptide: {C20 diacid-γGlu}-HCNTATCATQRLAEFLHRSSNNFGPILPPTNVGSNTY-NH2
modifications: disulfide 2-7
SMILES: CC[C@H](C)[C@H](NC(=O)[C@@H]1CCCN1C(=O)CNC(=O)[C@H](Cc1ccccc1)NC(=O)[C@H](CC(N)=O)NC(=O)[C@H](CC(N)=O)NC(=O)[C@H](CO)NC(=O)[C@H](CO)NC(=O)[C@H](CCCNC(=N)N)NC(=O)[C@H](Cc1c[nH]cn1)NC(=O)[C@H](CC(C)C)NC(=O)[C@H](Cc1ccccc1)NC(=O)[C@H](CCC(=O)O)NC(=O)[C@H](C)NC(=O)[C@H](CC(C)C)NC(=O)[C@H](CCCNC(=N)N)NC(=O)[C@H](CCC(N)=O)NC(=O)[C@@H](NC(=O)[C@H](C)NC(=O)[C@@H]1CSSC[C@H](NC(=O)[C@H](Cc2c[nH]cn2)NC(=O)CC[C@H](NC(=O)CCCCCCCCCCCCCCCCCCC(=O)O)C(=O)O)C(=O)N[C@@H](CC(N)=O)C(=O)N[C@@H]([C@@H](C)O)C(=O)N[C@@H](C)C(=O)N[C@@H]([C@@H](C)O)C(=O)N1)[C@@H](C)O)C(=O)N[C@@H](CC(C)C)C(=O)N1CCC[C@H]1C(=O)N1CCC[C@H]1C(=O)N[C@H](C(=O)N[C@@H](CC(N)=O)C(=O)N[C@H](C(=O)NCC(=O)N[C@@H](CO)C(=O)N[C@@H](CC(N)=O)C(=O)N[C@H](C(=O)N[C@@H](Cc1ccc(O)cc1)C(N)=O)[C@@H](C)O)C(C)C)[C@@H](C)O
B3: N-alpha-[2-(2-{2-[2-(2-{2-[(S)-4-Carboxy-4-(17-carboxyheptadecanoylamino)butyrylamino]ethoxy}ethoxy)acetylamino]ethoxy}ethoxy)acetyl]-D-Arg-D-Arg-[Orn1,Glu14,Hi … (peptide)
peptide: {C18 diacid-γGlu-AEEA-AEEA}-[dR][dR][Orn]CNTATCATQRLAEFLHRSSNNFGPILPPTNVGSNTY-NH2
modifications: disulfide 4-9
SMILES: CC[C@H](C)[C@H](NC(=O)[C@@H]1CCCN1C(=O)CNC(=O)[C@H](Cc1ccccc1)NC(=O)[C@H](CC(N)=O)NC(=O)[C@H](CC(N)=O)NC(=O)[C@H](CO)NC(=O)[C@H](CO)NC(=O)[C@H](CCCNC(=N)N)NC(=O)[C@H](Cc1c[nH]cn1)NC(=O)[C@H](CC(C)C)NC(=O)[C@H](Cc1ccccc1)NC(=O)[C@H](CCC(=O)O)NC(=O)[C@H](C)NC(=O)[C@H](CC(C)C)NC(=O)[C@H](CCCNC(=N)N)NC(=O)[C@H](CCC(N)=O)NC(=O)[C@@H](NC(=O)[C@H](C)NC(=O)[C@@H]1CSSC[C@H](NC(=O)[C@H](CCCN)NC(=O)[C@@H](CCCNC(=N)N)NC(=O)[C@@H](CCCNC(=N)N)NC(=O)COCCOCCNC(=O)COCCOCCNC(=O)CC[C@H](NC(=O)CCCCCCCCCCCCCCCCC(=O)O)C(=O)O)C(=O)N[C@@H](CC(N)=O)C(=O)N[C@@H]([C@@H](C)O)C(=O)N[C@@H](C)C(=O)N[C@@H]([C@@H](C)O)C(=O)N1)[C@@H](C)O)C(=O)N[C@@H](CC(C)C)C(=O)N1CCC[C@H]1C(=O)N1CCC[C@H]1C(=O)N[C@H](C(=O)N[C@@H](CC(N)=O)C(=O)N[C@H](C(=O)NCC(=O)N[C@@H](CO)C(=O)N[C@@H](CC(N)=O)C(=O)N[C@H](C(=O)N[C@@H](Cc1ccc(O)cc1)C(N)=O)[C@@H](C)O)C(C)C)[C@@H](C)O
B4: N-alpha-[(S)-4-Carboxy-4-(19-carboxynonadecanoylamino)butyryl]-[Arg1,Glu14,His17,Pro37]-pramlintide (peptide)
peptide: {C20 diacid-γGlu}-RCNTATCATQRLAEFLHHSSNNFGPILPPTNVGSNTP-NH2
modifications: disulfide 2-7
SMILES: CC[C@H](C)[C@H](NC(=O)[C@@H]1CCCN1C(=O)CNC(=O)[C@H](Cc1ccccc1)NC(=O)[C@H](CC(N)=O)NC(=O)[C@H](CC(N)=O)NC(=O)[C@H](CO)NC(=O)[C@H](CO)NC(=O)[C@H](Cc1c[nH]cn1)NC(=O)[C@H](Cc1c[nH]cn1)NC(=O)[C@H](CC(C)C)NC(=O)[C@H](Cc1ccccc1)NC(=O)[C@H](CCC(=O)O)NC(=O)[C@H](C)NC(=O)[C@H](CC(C)C)NC(=O)[C@H](CCCNC(=N)N)NC(=O)[C@H](CCC(N)=O)NC(=O)[C@@H](NC(=O)[C@H](C)NC(=O)[C@@H]1CSSC[C@H](NC(=O)[C@H](CCCNC(=N)N)NC(=O)CC[C@H](NC(=O)CCCCCCCCCCCCCCCCCCC(=O)O)C(=O)O)C(=O)N[C@@H](CC(N)=O)C(=O)N[C@@H]([C@@H](C)O)C(=O)N[C@@H](C)C(=O)N[C@@H]([C@@H](C)O)C(=O)N1)[C@@H](C)O)C(=O)N[C@@H](CC(C)C)C(=O)N1CCC[C@H]1C(=O)N1CCC[C@H]1C(=O)N[C@H](C(=O)N[C@@H](CC(N)=O)C(=O)N[C@H](C(=O)NCC(=O)N[C@@H](CO)C(=O)N[C@@H](CC(N)=O)C(=O)N[C@H](C(=O)N1CCC[C@H]1C(N)=O)[C@@H](C)O)C(C)C)[C@@H](C)O
B5: N-alpha-[(S)-4-Carboxy-4-(19-carboxynonadecanoylamino)butyryl]-[His1,Glu14,His17,Arg18,Ser21,Ser22,Asp31,Asp35]-pramlintide (peptide)
peptide: {C20 diacid-γGlu}-HCNTATCATQRLAEFLHRSSSSFGPILPPTDVGSDTY-NH2
modifications: disulfide 2-7
SMILES: CC[C@H](C)[C@H](NC(=O)[C@@H]1CCCN1C(=O)CNC(=O)[C@H](Cc1ccccc1)NC(=O)[C@H](CO)NC(=O)[C@H](CO)NC(=O)[C@H](CO)NC(=O)[C@H](CO)NC(=O)[C@H](CCCNC(=N)N)NC(=O)[C@H](Cc1c[nH]cn1)NC(=O)[C@H](CC(C)C)NC(=O)[C@H](Cc1ccccc1)NC(=O)[C@H](CCC(=O)O)NC(=O)[C@H](C)NC(=O)[C@H](CC(C)C)NC(=O)[C@H](CCCNC(=N)N)NC(=O)[C@H](CCC(N)=O)NC(=O)[C@@H](NC(=O)[C@H](C)NC(=O)[C@@H]1CSSC[C@H](NC(=O)[C@H](Cc2c[nH]cn2)NC(=O)CC[C@H](NC(=O)CCCCCCCCCCCCCCCCCCC(=O)O)C(=O)O)C(=O)N[C@@H](CC(N)=O)C(=O)N[C@@H]([C@@H](C)O)C(=O)N[C@@H](C)C(=O)N[C@@H]([C@@H](C)O)C(=O)N1)[C@@H](C)O)C(=O)N[C@@H](CC(C)C)C(=O)N1CCC[C@H]1C(=O)N1CCC[C@H]1C(=O)N[C@H](C(=O)N[C@@H](CC(=O)O)C(=O)N[C@H](C(=O)NCC(=O)N[C@@H](CO)C(=O)N[C@@H](CC(=O)O)C(=O)N[C@H](C(=O)N[C@@H](Cc1ccc(O)cc1)C(N)=O)[C@@H](C)O)C(C)C)[C@@H](C)O

Target: T1, human amylin 3(a) receptor (human …)
Test: cell-based or functional assay

| Binder | Amylin receptor human EC50 |
| --- | --- |
| B1 | 51.5 pM |
| B2 | 93.4 pM |
| B3 | 29.5 pM |
| B4 | 43 pM |
| B5 | 212 pM |

Target: T2, human calcitonin (a) receptor
Test: cell-based or functional assay

| Binder | CTa receptor human EC50 |
| --- | --- |
| B1 | 45.5 pM |
| B2 | 150 pM |
| B3 | 690 pM |
| B4 | 55 pM |
| B5 | 208 pM |

Target: T3, rat calcitonin (a) receptor
Test: cell-based or functional assay

| Binder | CTa receptor rat EC50 |
| --- | --- |
| B1 | 44 pM |
| B2 | 379 pM |
| B3 | 2570 pM |
| B4 | 58 pM |
| B5 | 1730 pM |

Target: T4, rat amylin 3(a) receptor (rat …)
Test: cell-based or functional assay

| Binder | Amylin receptor rat EC50 |
| --- | --- |
| B1 | 75 pM |
| B2 | 64.5 pM |
| B3 | 33 pM |
| B4 | 88 pM |
| B5 | 330 pM |
